From article PMC5226589 come the findings set out here.

Assay [1] addresses telomere target construct (TCON): HALO-tagged fusion of EGFP, CIB1 and TRF1 (UniProt Q8GY61). Kind of assay: FRET or BRET; FLIM-FRET in live HeLa cells co-transfected with TCON and ECON; lifetime of EGFP (donor) with mCherry (acceptor); blue light 8 mW/cm^2 for 5 min (a similar response after 8 min at 1 mW/cm^2).
Assay [2] shares this target.

“epigenetic effector construct (ECON): HALO-tagged fusion of DNMT3A, CRY2PHR and mCherry (from UniProt Q9Y6K1 1-912)” yielded an average fluorescence lifetime of EGFP (FRET donor on TCON) after 5 min of blue light in assay [1] of 2.06 ns. The mean telomere length (TRF, Southern blot) of co-transfected HeLa cells exposed to blue light over three generations (5.3 Kb Gen-1 to 6.03 Kb Gen-3; without light 5.01 Kb to 4.6 Kb) in assay [2] amounted to 6.03 Kb.
